Experimental data as given in the RNAGym collection of RNA variant scans (doi:10.7554/elife.80360).

B1: CPEB3 Ribozyme (parent)
chain: GGGGGCCACAGCAGAAGCGUUCACGUCGCGGCCCCUGUCAGAUUCUGGUGAAUCUGCGAAUUCUGCUGU

Variants of: B1
Test: self-cleavage, relative activity (ratio to wild type); higher = more cleavage; co-transcriptional
In the case of G11U C27G, the self-cleavage is reported as 0.134. G11U C27A gave a self-cleavage of 0.16. G11C G14A gave a self-cleavage of 0.0859. In the case of G11C G14U, the self-cleavage is reported as 0.172. G11C G14C gave a self-cleavage of 0.0758. G11U C18A showed a self-cleavage of 0.0522. Work on G11U C18U yielded a self-cleavage of 0.372. With G11U C18G the self-cleavage was 0.0807. For G11U A40G, the self-cleavage was 0.668. In the case of G11U A40C, the self-cleavage is reported as 0.213. Work on G11A A23U yielded a self-cleavage of 0.855. G11A A23C gave a self-cleavage of 0.775. With G11A A23G the self-cleavage was 0.792. Work on G11A U62A yielded a self-cleavage of 0.537. With G11A U62C the self-cleavage was 0.391. In the case of G11C C35G, the self-cleavage is reported as 0.209. Variant G11U A59G has a self-cleavage of 0.901. Work on G11C U55C yielded a self-cleavage of 0.243. In the case of G11A U21C, the self-cleavage is reported as 0.633. For G11A U21A, the self-cleavage was 0.875. In the case of G11A A40C, the self-cleavage is reported as 0.14. For G11A G41U, the self-cleavage was 0.342. G11A G41C showed a self-cleavage of 0.278. G11A G41A showed a self-cleavage of 0.276. G11C G50A gave a self-cleavage of 0.826. For G11C G50U, the self-cleavage was 0.867. Variant G11A A59U has a self-cleavage of 0.41. With G11A G19C the self-cleavage was 0.133. G11A G19U showed a self-cleavage of 0.088. G11C U61G gave a self-cleavage of 0.383. Variant G11C U61A has a self-cleavage of 0.424. G11C U62G showed a self-cleavage of 0.251. With G11C U62A the self-cleavage was 0.409. For G11C U62C, the self-cleavage was 0.402. Variant G11U G14C has a self-cleavage of 0.161. Variant G11U G14U has a self-cleavage of 0.144. In the case of G11A C18G, the self-cleavage is reported as 0.106. With G11A C18U the self-cleavage was 0.278. With G11A C18A the self-cleavage was 0.107. For G11A U55A, the self-cleavage was 0.348. With G11A U55G the self-cleavage was 0.317. Variant G11U C22G has a self-cleavage of 0.112. Variant G11U C22A has a self-cleavage of 0.129. With G11U C22U the self-cleavage was 0.179. With G11A U67C the self-cleavage was 0.996. With G11A U67G the self-cleavage was 0.98. In the case of G11U G65U, the self-cleavage is reported as 0.68. G11U G65C gave a self-cleavage of 0.574. For G11C A16G, the self-cleavage was 0.471. For G11C A52G, the self-cleavage was 0.838. For G11C A52U, the self-cleavage was 0.628. G11C A52C gave a self-cleavage of 0.551. With G11U G68C the self-cleavage was 0.943. Work on G11U G68U yielded a self-cleavage of 0.856. G11C A15C showed a self-cleavage of 0.497. With G11C A15U the self-cleavage was 0.188. With G11A G58A the self-cleavage was 0.842. G11A G58C showed a self-cleavage of 0.876. With G11A G58U the self-cleavage was 0.905. With G11A U69G the self-cleavage was 1.01. G11A U69A showed a self-cleavage of 0.973. G11C C63G gave a self-cleavage of 0.299. G11C C63A gave a self-cleavage of 0.275. With G11C U38G the self-cleavage was 0.113. For G11C U38A, the self-cleavage was 0.729. G11A A16C showed a self-cleavage of 0.0873. For G11A A16U, the self-cleavage was 0.352. G11A A16G gave a self-cleavage of 0.575. G11C G65U showed a self-cleavage of 0.53. Variant G11C G65C has a self-cleavage of 0.409. Variant G11C A60U has a self-cleavage of 0.243. G11C A60G showed a self-cleavage of 0.434. With G11C C66A the self-cleavage was 0.844. In the case of G11U C32U, the self-cleavage is reported as 0.854. With G11U C32G the self-cleavage was 0.295. G11U U21A showed a self-cleavage of 0.895. With G11C C33G the self-cleavage was 0.507. G11C C24A showed a self-cleavage of 0.321. For G11C C24U, the self-cleavage was 0.334. For G11A G25C, the self-cleavage was 0.103. G11A G25U showed a self-cleavage of 0.176. With G11A C34U the self-cleavage was 0.93. Variant G11C G28U has a self-cleavage of 0.137. G11C G28A showed a self-cleavage of 0.0877. For G11C G28C, the self-cleavage was 0.137. In the case of G11U C57G, the self-cleavage is reported as 0.204. In the case of G11U C57A, the self-cleavage is reported as 0.31. G11U C57U showed a self-cleavage of 0.215. Variant G11C U36G has a self-cleavage of 0.18. In the case of G11C U36C, the self-cleavage is reported as 0.62. Work on G11C U36A yielded a self-cleavage of 0.0623. G11U G19C showed a self-cleavage of 0.135. For G11U G19U, the self-cleavage was 0.118. G11U G19A gave a self-cleavage of 0.115. Variant G11C A59C has a self-cleavage of 0.324. G11C A59U gave a self-cleavage of 0.36. G11U G25U gave a self-cleavage of 0.136. In the case of G11U G25A, the self-cleavage is reported as 0.141. In the case of G11U G41A, the self-cleavage is reported as 0.217. G11U G41U showed a self-cleavage of 0.359. G11C C18A showed a self-cleavage of 0.0969. Variant G11C C18U has a self-cleavage of 0.246. G11A G68A showed a self-cleavage of 0.956. With G11A G68U the self-cleavage was 0.915. G11A G68C showed a self-cleavage of 0.947. In the case of G11A C63A, the self-cleavage is reported as 0.75. G11A C63G showed a self-cleavage of 0.493. G11C C29U showed a self-cleavage of 0.12. G11C C29A showed a self-cleavage of 0.181. G11C C29G showed a self-cleavage of 0.139. For G11A C22U, the self-cleavage was 0.191. Work on G11A C22A yielded a self-cleavage of 0.127. For G11C C22U, the self-cleavage was 0.143. Variant G11C C22A has a self-cleavage of 0.177. Work on G11U G50C yielded a self-cleavage of 0.797. G11U G50U showed a self-cleavage of 0.916. For G11C A23U, the self-cleavage was 0.798. With G11A C39A the self-cleavage was 0.405. With G11A C39U the self-cleavage was 0.609. Work on G11A C39G yielded a self-cleavage of 0.646. Work on G11U G30A yielded a self-cleavage of 0.589. Work on G11U G30C yielded a self-cleavage of 0.455. For G11U A15U, the self-cleavage was 0.295. G11A U38G showed a self-cleavage of 0.142. Variant G11A U38C has a self-cleavage of 0.733. For G11A U38A, the self-cleavage was 0.684. Variant G11A has a self-cleavage of 0.932. For G11C, the self-cleavage was 0.872. For G11U, the self-cleavage was 0.905. G11C U43C showed a self-cleavage of 0.571. G11C U43A gave a self-cleavage of 0.357. With G11C C34A the self-cleavage was 0.615. For G11C C34G, the self-cleavage was 0.578. Work on G11C C34U yielded a self-cleavage of 0.901. With G11A G14A the self-cleavage was 0.119. Variant G11A G14C has a self-cleavage of 0.267. For G11U A13C, the self-cleavage was 0.146. Variant G11U A13U has a self-cleavage of 0.184. G11U A13G showed a self-cleavage of 0.527. In the case of G11C C45A, the self-cleavage is reported as 0.757. G11C C45U gave a self-cleavage of 0.804. With G11C A51C the self-cleavage was 0.624. In the case of G11C A51G, the self-cleavage is reported as 0.73. Variant G11C A51U has a self-cleavage of 0.621. With G11A U49G the self-cleavage was 0.965. In the case of G11A U49A, the self-cleavage is reported as 0.926. G11U C12U showed a self-cleavage of 0.44. For G11U C12A, the self-cleavage was 0.549. For G11U C12G, the self-cleavage was 0.577. In the case of G11C C12A, the self-cleavage is reported as 0.653. G11C C39G gave a self-cleavage of 0.408. With G11C C39A the self-cleavage was 0.257. G11A C57U gave a self-cleavage of 0.332. Variant G11A C57A has a self-cleavage of 0.287. G11A G17C gave a self-cleavage of 0.122. For G11A G17U, the self-cleavage was 0.142. G11A G17A gave a self-cleavage of 0.119. Variant G11C C32A has a self-cleavage of 0.601. Work on G11C C32U yielded a self-cleavage of 0.82. G11C C32G showed a self-cleavage of 0.17. Variant G11A U64C has a self-cleavage of 0.513. G11A U64A gave a self-cleavage of 0.655. For G11A U64G, the self-cleavage was 0.661. In the case of G11C U20C, the self-cleavage is reported as 0.158. G11C U20A showed a self-cleavage of 0.115. Work on G11U G31C yielded a self-cleavage of 0.138. Variant G11U G31U has a self-cleavage of 0.499.
